Read-outs that look alike come from different tables or passages of the source.
Assays:
[1] = biological target: human IgE bound to FcεRI (IgE-loaded FcεRI α-chain on CHO 3D10 cells) (human) (UniProt P01854); test: FACS on IgE-loaded CHO 3D10 cells (FIG. 4); isotype control
[2] = biological target: human IgE bound to FcεRI (IgE-loaded FcεRI α-chain on CHO 3D10 cells) (human) (UniProt P01854); test: FACS on IgE-loaded CHO 3D10 cells (FIG. 4)
[3] = biological target: human IgE (affinity purified from U266B1 myeloma culture supernatant) (human) (UniProt P01854); test: soluble receptor assay: inhibition of biotin-IgE binding to plate-coated FcεRI α-chain IgG chimera
[4] = biological target: human IgE (affinity purified from U266B1 myeloma culture supernatant) (human) (UniProt P01854); test: as above; remark: listed apart in the source
[5] = biological target: human IgE (affinity purified from U266B1 myeloma culture supernatant) (human) (UniProt P01854); test: equilibrium binding of 125I-IgE, Scatchard analysis
[6] = biological target: human IgE bound to FcεRI (IgE-loaded FcεRI α-chain on CHO 3D10 cells) (human) (UniProt P01854); test: cell-based or functional assay
[7] = biological target: membrane IgE on U266B1 cells (human) (UniProt P01854); test: FACS on U266B1 cells (membrane IgE+)
Chain of membrane IgE on U266B1 cells (human) (P01854 whole entry, one chain of several): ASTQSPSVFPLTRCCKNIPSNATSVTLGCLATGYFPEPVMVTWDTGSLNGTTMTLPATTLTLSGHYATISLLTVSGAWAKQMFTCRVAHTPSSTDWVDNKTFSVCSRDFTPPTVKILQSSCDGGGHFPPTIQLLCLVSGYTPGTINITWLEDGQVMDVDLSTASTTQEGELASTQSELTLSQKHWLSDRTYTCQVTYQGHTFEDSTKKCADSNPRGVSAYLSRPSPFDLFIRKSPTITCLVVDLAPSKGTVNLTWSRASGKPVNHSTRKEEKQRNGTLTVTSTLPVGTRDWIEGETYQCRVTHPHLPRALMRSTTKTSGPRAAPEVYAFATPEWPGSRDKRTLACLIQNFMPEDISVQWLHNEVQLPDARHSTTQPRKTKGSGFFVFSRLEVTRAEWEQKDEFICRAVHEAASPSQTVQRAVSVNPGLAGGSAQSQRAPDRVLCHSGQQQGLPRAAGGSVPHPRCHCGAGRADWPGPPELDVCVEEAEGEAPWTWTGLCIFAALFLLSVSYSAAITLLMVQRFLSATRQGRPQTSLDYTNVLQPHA

Chain of human IgE (affinity purified from U266B1 myeloma culture supernatant) (human) (P01854 whole entry, form in doubt, one chain of several): as the sequence (P01854 whole entry, one chain of several) above
Chain of human IgE bound to FcεRI (IgE-loaded FcεRI α-chain on CHO 3D10 cells) (human) (P01854 whole entry, chain 1 of 2): as the sequence (P01854 whole entry, one chain of several) above
Chain of human IgE bound to FcεRI (IgE-loaded FcεRI α-chain on CHO 3D10 cells) (human) (P12319 26-257, chain 2 of 2, further chain): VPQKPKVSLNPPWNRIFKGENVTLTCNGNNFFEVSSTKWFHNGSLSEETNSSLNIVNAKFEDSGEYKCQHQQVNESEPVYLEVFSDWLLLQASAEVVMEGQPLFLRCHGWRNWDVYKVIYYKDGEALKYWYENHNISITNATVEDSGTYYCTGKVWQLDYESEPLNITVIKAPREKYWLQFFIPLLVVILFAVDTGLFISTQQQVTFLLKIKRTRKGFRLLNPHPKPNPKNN

| nonspecific background binding [1] | mean channel fluorescence at 0.1 µg/ml (mean channel fluorescence) [2] | IC50 [3] | ratio F(ab)-X/F(ab)-2 [3] | ratio F(ab)-X/MaE11 [3] | IC50 [4] | ratio Variant X/IgG1-2 [4] | ratio Variant X/MaE11 [4] | Kd [5] | PBL histamine release (EC50), IgE-loaded peripheral blood basophils [6] | EC50 [7] | Molecule |
| --- | --- | --- | --- | --- | --- | --- | --- | --- | --- | --- | --- |
| 10% | 7.3 | – | – | – | – | – | – | – | – | – | MOPC21 (antibody) |
| – | 6.4 | 0.179 µg/mL | 0.03 | 1 | 0.449 µg/mL | 0.06 | 1 | 30 nM | > 100 µg/mL | 0.15 µg/mL | MaE11 (antibody, mouse IgG1, V domains shown) VH: DVQLQESGPGLVKPSQSLSLACSVTGYSITSGYSWNWIRQFPGNKLEWMGSITYDGSSNYNPSLKNRISVTRDTSQNQFFLKLNSATAEDTATYYCARGSHYFGHWHFAVWGAGTTVTVSS VL: DIQLTQSPASLAVSLGQRATISCKASQSVDYDGDSYMNWYQQKPGQPPILLIYAASYLGSEIPARFSGSGSGTDFTLNIHPVEEEDAATFYCQQSHEDPYTFGAGTKLEIK |
